Results on 1 molecule are retold here after article PMC2936784 (Science (New York, N.Y.), 2009).

This test has as its target PTEN, purified from HEK293 cells (UniProt P60484 1-403). As to the kind of experiment: enzyme inhibition kinetics.

PTEN, purified from HEK293 cells, sequence (P60484 whole entry): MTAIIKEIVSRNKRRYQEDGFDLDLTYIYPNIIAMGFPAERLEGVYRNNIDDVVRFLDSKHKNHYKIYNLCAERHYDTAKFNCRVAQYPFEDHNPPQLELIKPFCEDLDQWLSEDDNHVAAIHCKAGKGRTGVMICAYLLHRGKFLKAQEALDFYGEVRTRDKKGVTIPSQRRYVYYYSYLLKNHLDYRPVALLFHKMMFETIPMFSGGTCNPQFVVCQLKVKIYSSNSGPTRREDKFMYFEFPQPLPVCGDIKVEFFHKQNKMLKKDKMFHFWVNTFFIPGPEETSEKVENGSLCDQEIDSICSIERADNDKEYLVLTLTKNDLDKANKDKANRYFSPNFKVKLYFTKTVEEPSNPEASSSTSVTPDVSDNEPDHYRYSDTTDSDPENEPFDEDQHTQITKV

B1: Affinity purified full-length P-REX2a (natural protein, UniProt Q70Z35 1-1606, looked up)
chain: MSEDSRGDSRAESAKDLEKQLRLRVCVLSELQKTERDYVGTLEFLVSAFLHRMNQCAASKVDKNVTEETVKMLFSNIEDILAVHKEFLKVVEECLHPEPNAQQEVGTCFLHFKDKFRIYDEYCSNHEKAQKLLLELNKIRTIRTFLLNCMLLGGRKNTDVPLEGYLVTPIQRICKYPLILKELLKRTPRKHSDYAAVMEALQAMKAVCSNINEAKRQMEKLEVLEEWQSHIEGWEGSNITDTCTEMLMCGVLLKISSGNIQERVFFLFDNLLVYCKRKHRRLKNSKASTDGHRYLFRGRINTEVMEVENVDDGTADFHSSGHIVVNGWKIHNTAKNKWFVCMAKTPEEKHEWFEAILKERERRKGLKLGMEQDTWVMISEQGEKLYKMMCRQGNLIKDRKRKLTTFPKCFLGSEFVSWLLEIGEIHRPEEGVHLGQALLENGIIHHVTDKHQFKPEQMLYRFRYDDGTFYPRNEMQDVISKGVRLYCRLHSLFTPVIRDKDYHLRTYKSVVMANKLIDWLIAQGDCRTREEAMIFGVGLCDNGFMHHVLEKSEFKDEPLLFRFFSDEEMEGSNMKHRLMKHDLKVVENVIAKSLLIKSNEGSYGFGLEDKNKVPIIKLVEKGSNAEMAGMEVGKKIFAINGDLVFMRPFNEVDCFLKSCLNSRKPLRVLVSTKPRETVKIPDSADGLGFQIRGFGPSVVHAVGRGTVAAAAGLHPGQCIIKVNGINVSKETHASVIAHVTACRKYRRPTKQDSIQWVYNSIESAQEDLQKSHSKPPGDEAGDAFDCKVEEVIDKFNTMAIIDGKKEHVSLTVDNVHLEYGVVYEYDSTAGIKCNVVEKMIEPKGFFSLTAKILEALAKSDEHFVQNCTSLNSLNEVIPTDLQSKFSALCSERIEHLCQRISSYKKFSRVLKNRAWPTFKQAKSKISPLHSSDFCPTNCHVNVMEVSYPKTSTSLGSAFGVQLDSRKHNSHDKENKSSEQGKLSPMVYIQHTITTMAAPSGLSLGQQDGHGLRYLLKEEDLETQDIYQKLLGKLQTALKEVEMCVCQIDDLLSSITYSPKLERKTSEGIIPTDSDNEKGERNSKRVCFNVAGDEQEDSGHDTISNRDSYSDCNSNRNSIASFTSICSSQCSSYFHSDEMDSGDELPLSVRISHDKQDKIHSCLEHLFSQVDSITNLLKGQAVVRAFDQTKYLTPGRGLQEFQQEMEPKLSCPKRLRLHIKQDPWNLPSSVRTLAQNIRKFVEEVKCRLLLALLEYSDSETQLRRDMVFCQTLVATVCAFSEQLMAALNQMFDNSKENEMETWEASRRWLDQIANAGVLFHFQSLLSPNLTDEQAMLEDTLVALFDLEKVSFYFKPSEEEPLVANVPLTYQAEGSRQALKVYFYIDSYHFEQLPQRLKNGGGFKIHPVLFAQALESMEGYYYRDNVSVEEFQAQINAASLEKVKQYNQKLRAFYLDKSNSPPNSTSKAAYVDKLMRPLNALDELYRLVASFIRSKRTAACANTACSASGVGLLSVSSELCNRLGACHIIMCSSGVHRCTLSVTLEQAIILARSHGLPPRYIMQATDVMRKQGARVQNTAKNLGVRDRTPQSAPRLYKLCEPPPPAGEE
For B1, the inhibitory constant (Ki) (commonly the equilibrium dissociation constant of an inhibitor or competing ligand from its target) is 19 nM.
